Test results reported in patent US20240166765A1 (ICONIC THERAPEUTICS, published 2024).
Where a chain is given by its changes, count along the chain named.

Key:
Assay in all cases: cell-based or functional assay
Relipidated TF = Relipidated TF (UniProt P13726 33-295, limits assumed)
[1] = molecular target: T1, human Tissue Factor on MDA-MB-231 cells (human, UniProt P13726 33-295)
[2] = molecular target: T1, human Tissue Factor on MDA-MB-231 cells; remark: listed apart in the source
[3] = molecular target: human Tissue Factor (hTF), endogenously expressed on human TF-positive cells (human, UniProt P13726 33-295)

B1: 39A (antibody, human IgG1, V domains shown)
VH: QVQLVQSGAEVKKPGSSVKVSCKASGGTFSSNAIGWVRQAPGQGLEWMGSIIPIIGFANYAQKFQGRVTITADESTSTAYMELSSLRSEDTAVYYCARDSGYYYGASSFGMDVWGQGTTVTVSS
VL: EIVMTQSPATLSVSPGERATLSCRASQSVSSNLAWYQQKPGQAPRLLIYGASTRATGIPARFSGSGSGTEFTLTISSLQSEDFAVYYCEQYNNLPLTFGGGTKVEIK
Relipidated TF
  % ETP, TGA 10 min pre-incubation, 10 nM Ab: 0%
  % Peak IIa, TGA […] min pre-incubation, 10 nM Ab: 13%
  % Peak IIa, TGA […] min pre-incubation, 50 nM Ab: 8%
  % Peak IIa, TGA […] min pre-incubation, 100 nM Ab: 7%
  % ttPeak, TGA 10 min pre-incubation, 10 nM Ab: 319%
  % ttPeak, TGA 10 min pre-incubation, 50 nM Ab: 491%
  % ttPeak, TGA 10 min pre-incubation, 100 nM Ab: 537%
  Lag Time, TGA 10 min pre-incubation, 10 nM Ab: 19.6 min
  Lag Time, TGA 10 min pre-incubation, 50 nM Ab: 30.7 min
  Lag Time, TGA 10 min pre-incubation, 100 nM Ab: 33.6 min
  Peak IIa, TGA […] min pre-incubation, 10 nM Ab: 36 nM
  Peak IIa, TGA […] min pre-incubation, 50 nM Ab: 22 nM
  Peak IIa, TGA […] min pre-incubation, 100 nM Ab: 19 nM
  ttPeak, TGA 10 min pre-incubation, 10 nM Ab: 29.3 min
  ttPeak, TGA 10 min pre-incubation, 50 nM Ab: 41.4 min
  ttPeak, TGA 10 min pre-incubation, 100 nM Ab: 44.6 min

B2: 54E (antibody, human IgG1, V domains shown)
VH: QVQLVQSGAEVKKPGASVKVSCKASGYTFANYYMHWVRQAPGQGLEWMGIINPSGGITVYAQKFQGRVTMTRDTSTSTVYMELSSLRSEDTAVYYCARGGSKVAALAFDIWGQGTMVTVSS
VL: DIQMTQSPSSLSASVGDRVTITCQASQDISNSLNWYQQKPGKAPKLLIYDASNLETGVPSRFSGSRSGTDFTFTISSLQPEDIATYYCQQYNFHPLTFGGGTKVEIK
Relipidated TF
  % ETP, TGA 10 min pre-incubation, 10 nM Ab: 83%
  % Peak IIa, TGA […] min pre-incubation, 10 nM Ab: 43%
  % Peak IIa, TGA […] min pre-incubation, 50 nM Ab: 16%
  % Peak IIa, TGA […] min pre-incubation, 100 nM Ab: 13%
  % ttPeak, TGA 10 min pre-incubation, 10 nM Ab: 96%
  % ttPeak, TGA 10 min pre-incubation, 50 nM Ab: 303%
  % ttPeak, TGA 10 min pre-incubation, 100 nM Ab: 371%
  ETP, TGA 10 min pre-incubation, 10 nM Ab: 1520 nM·min
  Lag Time, TGA 10 min pre-incubation, 10 nM Ab: 6.5 min
  Lag Time, TGA 10 min pre-incubation, 50 nM Ab: 18.3 min
  Lag Time, TGA 10 min pre-incubation, 100 nM Ab: 22.3 min
  Peak IIa, TGA […] min pre-incubation, 10 nM Ab: 121 nM
  Peak IIa, TGA […] min pre-incubation, 50 nM Ab: 44 nM
  Peak IIa, TGA […] min pre-incubation, 100 nM Ab: 37 nM
  ttPeak, TGA 10 min pre-incubation, 10 nM Ab: 13.7 min
  ttPeak, TGA 10 min pre-incubation, 50 nM Ab: 28.2 min
  ttPeak, TGA 10 min pre-incubation, 100 nM Ab: 33 min

B3: 25G1 (antibody, human IgG1, kappa, V domains shown)
VH: QVQLVQSGAEVKKPGASVKVSCKASGYTFRSYGISWVRQAPGQGLEWMGWVAPYSGNTNYAQKLQGRVTMTTDTSTSTAYMELRSLRSDDTAVYYCARDAGTYSPYGYGMDVWGQGTTVTVSS
VL: DIQMTQSPSTLSASVGDRVTITCRASHSIDSWLAWYQQKPGKAPKLLIYKASYLESGVPSRFSGSGSGTEFTLTISSLQPDDFATYYCQLFQSLPPFTFGGGTKVEIKR
[1]
  % IL8, 2.56 nM Ab: 46%
  % IL8, 6.4 nM Ab: 12%
  % IL8, 16 nM Ab: 9%
  % IL8, 40 nM Ab: 8%
  % IL8, 100 nM Ab: 9%

B4: 25A3 (antibody, human IgG1, kappa, V domains shown)
VH: B3 VH with R30D, S31V, V51I, Y106F
VL: B3 VL with R24Q, H27Q, D30N, S31N, S52Y, Y53N
[1]
  % IL8, 2.56 nM Ab: 47%
  % IL8, 6.4 nM Ab: 9%
  % IL8, 16 nM Ab: 8%
  % IL8, 40 nM Ab: 8%
  % IL8, 100 nM Ab: 8%

B5: 25A5 (antibody, human IgG1, kappa, V domains shown)
VH: B3 VH with R30D, S31V, V51I, Y106F
VL: B3 VL with H27E, D30S, S31N, S52Y, Y53S, S56Y, L90Q, S93K
[1]
  % IL8, 2.56 nM Ab: 70%
  % IL8, 16 nM Ab: 7%
  % IL8, 40 nM Ab: 7%

B6: 25G9 (antibody, human IgG1, kappa, V domains shown)
VH: B3 VH
VL: B3 VL with R24Q, H27Q, K50S, L90R
[1]
  % IL8, 2.56 nM Ab: 51%
  % IL8, 16 nM Ab: 15%
  % IL8, 40 nM Ab: 14%
  % IL8, 100 nM Ab: 13%

B7: 5G9 (humanized TF8-5G9, CNTO 860) (antibody, V domains shown)
VH: QVQLVESGGGVVQPGRSLRLSCKASGFNIKDYYMHWVRQAPGKGLEWIGLIDPENGNTIYDPKFQGRFTISADNSKNTLFLQMDSLRPEDTAVYYCARDNSYYFDYWGQGTPVTVSS
VL: DIQMTQSPSSLSASVGDRVTITCKASQDIRKYLNWYQQKPGKAPKLLIYYATSLADGVPSRFSGSGSGTDYTFTISSLQPEDIATYYCLQHGESPYTFGQGTKLEIT
[2]
  % FXa, 12.5 nM Ab: 37%
  % FXa, 25 nM Ab: 33%
  % FXa, 50 nM Ab: 30%
  % FXa, 100 nM Ab: 30%

B8: 43B (antibody, V domains shown)
VH: QVQLQESGPGLVKPSQTLSLTCTVSGGSISSGQYWSWIRQHPGKGLEWIGEIYYSGSTRYNPSLKSRVTISVDTSKNQFSLKLSSVTAADTAVYYCARDAPYYYGGGYYYYMDVWGKGTTVTVSS
VL: EIVLTQSPGTLSLSPGERATLSCRASQSVSSSYLAWYQQKPGQAPRLLIYGASSRATGIPDRFSGSGSGTDFTLTISRLEPEDFAVYYCQQVGVVPYTFGGGTKVEIK
[1]
  % IL8, 2.56 nM Ab: 50%
  % IL8, 16 nM Ab: 5%
  % IL8, 40 nM Ab: 4%
  % IL8, 100 nM Ab: 4%

B9: 43B7 (antibody, V domains shown)
VH: B8 VH
VL: B8 VL with Q27E, S30D, S53D, V92D
[1]
  % IL8, 2.56 nM Ab: 55%
  % IL8, 6.4 nM Ab: 15%
  % IL8, 16 nM Ab: 8%
  % IL8, 40 nM Ab: 4%
  % IL8, 100 nM Ab: 4%

B10: anti-TF antibody 25A5 (antibody, human IgG1, kappa, V domains shown)
VH: B3 VH with R30D, S31V, V51I, Y106F
VL: B3 VL with H27E, D30S, S31N, S52Y, Y53S, S56Y, L90Q, S93K
[3]
  % GM-CSF, 2.56 nM antibody, MDA-MB-231 cells + FVIIa: 72%
  % GM-CSF, 6.4 nM antibody, MDA-MB-231 cells + FVIIa: 18%

B11: anti-TF antibody 43B1 (antibody, human IgG1, V domains shown)
VH: B8 VH
VL: B8 VL with Q27E, S30D, S54T, A56Q, V92A
[3]
  % GM-CSF, 2.56 nM antibody, MDA-MB-231 cells + FVIIa: 50%
  % GM-CSF, 6.4 nM antibody, MDA-MB-231 cells + FVIIa: 16%

B12: anti-TF antibody 43B7 (antibody, human IgG1, V domains shown)
VH: B8 VH
VL: B8 VL with Q27E, S30D, S53D, V92D
[3]
  % GM-CSF, 2.56 nM antibody, MDA-MB-231 cells + FVIIa: 50%
  % GM-CSF, 6.4 nM antibody, MDA-MB-231 cells + FVIIa: 17%

B13: anti-TF antibody 43D (antibody, human IgG1, V domains shown)
VH: QVQLQQWGAGLLKPSETLSLTCAVYGGSLSGYYWSWIRQPPGKGLEWIGEIGASGSTRYNPSLKSRVTISVDTSKNQFSLKLSSVTAADTAVYYCARDTPYYYEGGYYYYMDVWGKGTTVTVSS
VL: B8 VL
[3]
  % GM-CSF, 2.56 nM antibody, MDA-MB-231 cells + FVIIa: 56%
  % GM-CSF, 6.4 nM antibody, MDA-MB-231 cells + FVIIa: 24%
  % GM-CSF, 16 nM antibody, MDA-MB-231 cells + FVIIa: 13%
  % GM-CSF, 40 nM antibody, MDA-MB-231 cells + FVIIa: 11%
  % GM-CSF, 100 nM antibody, MDA-MB-231 cells + FVIIa: 12%
